In test [1] the target is Gerd_aPriL1, non-catalytic primase subunit PriL (Loki group) of Candidatus Gerdarchaeota archaeon B18_G1 (Candidatus Gerdarchaeota archaeon B18_G1). Briefly: SPR; BIACORE, CM5 chip; Gerd_ePriL or Gerd_aPriL1 immobilised, Gerd_ePriS concentration gradient (methods; the legend of Figure 3 tells the reverse); 20 mM Hepes pH 7.5, 500 mM NaCl, 0.005% Tween 20, 30 uL/min, 25 °C. In general terms: In SPR one partner is held on a chip, and binding of the other changes the refractive index at the surface.

The target in test [2] is Gerd_ePriL, non-catalytic primase subunit PriL (Heimdall group) of Candidatus Gerdarchaeota archaeon B18_G1 (Candidatus Gerdarchaeota archaeon B18_G1). The description is as above.

In general, Kd refers to the concentration at which binding is half-saturated. A higher Kd goes with lower affinity.

On to “Gerd_ePriS, catalytic primase subunit PriS of Candidatus Gerdarchaeota archaeon B18_G1 (enzyme)”, for which the Kd was found to be 0.105 µM in test [1] and 0.00267 µM in test [2].

The values are drawn from article PMC12770985.
